Measured values as given in patent US20090093061A1.

Legend:
Assay in all cases: GroEL-490 bead column capture of denatured serum, ATP elution, LC-MS-MS
[1] = biological target: complement component 4 binding protein, alpha (Homo sapiens) (UniProt P04003)
[2] = biological target: LUC7-liKe 2 (Homo sapiens) (UniProt Q9Y383)
[3] = biological target: microfilament and actin filament cross-linker protein isoform a (UniProt Q9UPN3)
[4] = biological target: peroxisome biogenesis factor 13 (Homo sapiens) (UniProt Q92968)
[5] = biological target: human immunodeficiency virus type I enhancer binding protein 2 (Homo sapiens) (UniProt P31629)
[6] = biological target: Rho GTPase activating protein 21 (Homo sapiens) (UniProt Q5T5U3)
[7] = biological target: similar to ataxin 2 binding protein 1 isoform gamma (Homo sapiens)
[8] = biological target: solute carrier family 4, anion exchanger, member 2 (erythrocyte membrane protein band 3-liKe 1) (Homo sapiens) (UniProt P04920)
[9] = biological target: bassoon (Homo sapiens) (UniProt Q9UPA5)
[10] = biological target: similar to Ig alpha-2 chain C region (Homo sapiens) (UniProt P25787)
[11] = biological target: POU domain, class 2, transcription factor 1 (Homo sapiens) (UniProt P14859)
[12] = biological target: glutaminase C (Homo sapiens) (UniProt O94925)
[13] = biological target: zinc finger protein 28 (Homo sapiens) (UniProt Q8NHY6)
[14] = biological target: complement component 3 precursor (Homo sapiens) (UniProt P01024)
[15] = biological target: similar to KIAA1074 protein (Homo sapiens) (UniProt Q9UPS8)
[16] = biological target: apolipoprotein B precursor (Homo sapiens) (UniProt P04114)
[17] = biological target: hemopexin (Homo sapiens) (UniProt P02790)
[18] = biological target: similar to hypothetical protein (Homo sapiens)
[19] = biological target: hypothetical protein XP_378771 (Homo sapiens)
[20] = biological target: coronin, actin binding protein, 1B (Homo sapiens) (UniProt Q9BR76)
[21] = biological target: MAX dimerization protein 5 (Homo sapiens) (UniProt Q8IWI9)
[22] = biological target: SPRY domain-containing SOCS box protein SSB-4 (Homo sapiens) (UniProt Q96A44)
[23] = biological target: apolipoprotein A-I precursor (Homo sapiens) (UniProt P02647)
[24] = biological target: triple functional domain (PTPRF interacting) (Homo sapiens) (UniProt O75962)
[25] = biological target: integrin, beta 5 (Homo sapiens) (UniProt P18084)
[26] = biological target: Hpall tiny fragments locus 9C isoform2 (Homo sapiens) (UniProt Q8IZ69)
[27] = biological target: E74-like factor 4 (ets domain transcription factor) (Homo sapiens) (UniProt Q99607)
[28] = biological target: DNA polymerase theta isoform 1 (Homo sapiens) (UniProt O75417)
[29] = biological target: PDZ domain-containing guanine nucleotide exchange factor I (Homo sapiens) (UniProt Q8TEU7)
[30] = biological target: zinc finger protein 469 (Homo sapiens) (UniProt Q96JG9)
[31] = biological target: T1, similar to Nonhistone chromosomal protein HMG-14 (High-mobility group nucleosome binding domain 1) (Homo sapiens) (UniProt P05114)
T1 sequence (looked up): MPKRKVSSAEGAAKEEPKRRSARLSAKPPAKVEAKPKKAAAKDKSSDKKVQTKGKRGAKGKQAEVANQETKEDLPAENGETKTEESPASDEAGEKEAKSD

[32] = biological target: hypothetical protein XP_376158 (Homo sapiens)
[33] = biological target: SMC5 protein (Homo sapiens) (UniProt Q8IY18)
SMC5 protein (Homo sapiens), sequence (Q8IY18 whole entry): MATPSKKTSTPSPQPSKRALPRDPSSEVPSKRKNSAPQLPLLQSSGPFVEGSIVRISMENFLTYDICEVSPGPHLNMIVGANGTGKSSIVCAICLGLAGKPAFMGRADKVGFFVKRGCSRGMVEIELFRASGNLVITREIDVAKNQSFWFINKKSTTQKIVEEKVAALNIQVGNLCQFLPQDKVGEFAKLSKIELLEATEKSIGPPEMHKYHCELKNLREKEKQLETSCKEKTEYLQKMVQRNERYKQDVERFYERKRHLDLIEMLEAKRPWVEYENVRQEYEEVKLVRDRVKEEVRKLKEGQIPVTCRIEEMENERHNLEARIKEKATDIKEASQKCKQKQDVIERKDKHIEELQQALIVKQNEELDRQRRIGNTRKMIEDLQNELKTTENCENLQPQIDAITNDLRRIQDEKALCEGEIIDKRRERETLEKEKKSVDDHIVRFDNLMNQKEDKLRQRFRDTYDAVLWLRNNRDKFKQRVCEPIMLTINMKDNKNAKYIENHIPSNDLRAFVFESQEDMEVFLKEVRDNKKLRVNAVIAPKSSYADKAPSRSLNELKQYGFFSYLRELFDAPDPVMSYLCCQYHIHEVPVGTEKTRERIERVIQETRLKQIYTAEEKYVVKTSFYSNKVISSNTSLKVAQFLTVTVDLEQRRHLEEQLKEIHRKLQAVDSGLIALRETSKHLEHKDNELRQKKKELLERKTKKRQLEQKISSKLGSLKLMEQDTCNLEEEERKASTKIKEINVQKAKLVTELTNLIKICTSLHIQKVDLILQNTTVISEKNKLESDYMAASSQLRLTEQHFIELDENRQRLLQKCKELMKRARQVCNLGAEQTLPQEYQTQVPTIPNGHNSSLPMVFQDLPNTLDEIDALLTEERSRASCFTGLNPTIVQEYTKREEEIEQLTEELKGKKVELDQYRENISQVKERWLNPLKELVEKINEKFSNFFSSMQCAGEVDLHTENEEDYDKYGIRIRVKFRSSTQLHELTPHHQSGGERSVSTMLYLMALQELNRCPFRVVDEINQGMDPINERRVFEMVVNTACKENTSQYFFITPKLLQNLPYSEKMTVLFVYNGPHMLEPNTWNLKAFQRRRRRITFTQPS

GroEL having Aspartate 490 substituted with Cysteine, biotinylated and conjugated onto NeutrAvidin beads, sequence (A1AJ51 whole entry D490C): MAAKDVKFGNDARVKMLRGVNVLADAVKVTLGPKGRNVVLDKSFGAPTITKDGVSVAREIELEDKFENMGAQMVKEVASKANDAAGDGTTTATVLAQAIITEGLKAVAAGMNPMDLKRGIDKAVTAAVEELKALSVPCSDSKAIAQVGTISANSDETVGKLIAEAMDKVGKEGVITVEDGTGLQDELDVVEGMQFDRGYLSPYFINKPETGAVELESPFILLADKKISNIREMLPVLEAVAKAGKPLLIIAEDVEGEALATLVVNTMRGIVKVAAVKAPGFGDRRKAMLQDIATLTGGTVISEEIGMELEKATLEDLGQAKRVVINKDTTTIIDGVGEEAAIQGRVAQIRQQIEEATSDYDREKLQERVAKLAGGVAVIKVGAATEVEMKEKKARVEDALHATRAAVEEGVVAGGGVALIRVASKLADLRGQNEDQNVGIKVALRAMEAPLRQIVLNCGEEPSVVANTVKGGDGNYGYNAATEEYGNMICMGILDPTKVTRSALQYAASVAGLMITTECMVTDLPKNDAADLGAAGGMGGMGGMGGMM
hemopexin (Homo sapiens), sequence (P02790 24-462 limits assumed): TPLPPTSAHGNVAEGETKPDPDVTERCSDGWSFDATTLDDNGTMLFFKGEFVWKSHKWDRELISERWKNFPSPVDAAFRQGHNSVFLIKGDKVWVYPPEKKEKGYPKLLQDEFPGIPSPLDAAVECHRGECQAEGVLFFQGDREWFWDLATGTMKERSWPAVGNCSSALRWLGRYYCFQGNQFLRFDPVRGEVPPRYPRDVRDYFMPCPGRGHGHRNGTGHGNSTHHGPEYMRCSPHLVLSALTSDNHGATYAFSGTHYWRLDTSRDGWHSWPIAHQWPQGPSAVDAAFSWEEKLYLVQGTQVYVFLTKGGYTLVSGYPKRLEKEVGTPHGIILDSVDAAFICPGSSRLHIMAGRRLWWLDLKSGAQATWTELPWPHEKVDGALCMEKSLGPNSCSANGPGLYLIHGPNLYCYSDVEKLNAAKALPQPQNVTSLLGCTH
peroxisome biogenesis factor 13 (Homo sapiens), sequence (Q92968 whole entry): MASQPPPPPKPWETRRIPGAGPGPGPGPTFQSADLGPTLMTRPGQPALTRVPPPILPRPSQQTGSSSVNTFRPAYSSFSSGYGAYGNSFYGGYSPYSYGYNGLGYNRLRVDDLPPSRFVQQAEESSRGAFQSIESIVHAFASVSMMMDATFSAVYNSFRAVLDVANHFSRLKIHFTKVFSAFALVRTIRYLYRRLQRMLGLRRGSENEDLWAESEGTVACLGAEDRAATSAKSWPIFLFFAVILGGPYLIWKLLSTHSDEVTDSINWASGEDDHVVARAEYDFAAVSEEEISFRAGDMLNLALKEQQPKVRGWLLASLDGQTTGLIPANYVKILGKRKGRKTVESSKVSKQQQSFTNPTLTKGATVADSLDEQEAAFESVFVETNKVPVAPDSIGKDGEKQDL
POU domain, class 2, transcription factor 1 (Homo sapiens), sequence (P14859 whole entry, the tested form may be a part): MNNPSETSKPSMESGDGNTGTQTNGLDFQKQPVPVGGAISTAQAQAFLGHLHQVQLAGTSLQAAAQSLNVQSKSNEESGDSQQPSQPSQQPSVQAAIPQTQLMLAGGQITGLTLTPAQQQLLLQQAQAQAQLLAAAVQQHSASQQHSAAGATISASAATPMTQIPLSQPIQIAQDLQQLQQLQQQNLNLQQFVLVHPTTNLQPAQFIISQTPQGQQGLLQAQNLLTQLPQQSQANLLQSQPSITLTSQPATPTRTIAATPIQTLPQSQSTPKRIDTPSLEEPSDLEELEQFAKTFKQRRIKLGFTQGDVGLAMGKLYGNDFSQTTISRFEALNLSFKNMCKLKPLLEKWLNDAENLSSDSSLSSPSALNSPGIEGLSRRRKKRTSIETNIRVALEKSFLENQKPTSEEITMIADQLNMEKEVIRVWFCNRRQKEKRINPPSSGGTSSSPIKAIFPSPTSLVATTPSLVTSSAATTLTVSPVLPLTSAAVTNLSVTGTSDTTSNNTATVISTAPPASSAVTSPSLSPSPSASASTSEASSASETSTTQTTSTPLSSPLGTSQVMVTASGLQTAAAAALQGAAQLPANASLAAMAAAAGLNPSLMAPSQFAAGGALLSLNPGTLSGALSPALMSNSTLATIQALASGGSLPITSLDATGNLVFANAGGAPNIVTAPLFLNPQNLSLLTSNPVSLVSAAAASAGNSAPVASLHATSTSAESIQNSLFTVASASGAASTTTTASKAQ
similar to Ig alpha-2 chain C region (Homo sapiens), sequence (P25787 2-234 limits assumed): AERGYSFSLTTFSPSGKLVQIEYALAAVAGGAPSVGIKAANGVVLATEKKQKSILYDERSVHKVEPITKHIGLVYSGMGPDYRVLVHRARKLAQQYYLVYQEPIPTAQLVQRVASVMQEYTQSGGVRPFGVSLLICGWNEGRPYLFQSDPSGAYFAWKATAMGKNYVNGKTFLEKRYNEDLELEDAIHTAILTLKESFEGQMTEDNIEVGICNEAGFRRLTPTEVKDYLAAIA
integrin, beta 5 (Homo sapiens), sequence (P18084 24-799 limits assumed): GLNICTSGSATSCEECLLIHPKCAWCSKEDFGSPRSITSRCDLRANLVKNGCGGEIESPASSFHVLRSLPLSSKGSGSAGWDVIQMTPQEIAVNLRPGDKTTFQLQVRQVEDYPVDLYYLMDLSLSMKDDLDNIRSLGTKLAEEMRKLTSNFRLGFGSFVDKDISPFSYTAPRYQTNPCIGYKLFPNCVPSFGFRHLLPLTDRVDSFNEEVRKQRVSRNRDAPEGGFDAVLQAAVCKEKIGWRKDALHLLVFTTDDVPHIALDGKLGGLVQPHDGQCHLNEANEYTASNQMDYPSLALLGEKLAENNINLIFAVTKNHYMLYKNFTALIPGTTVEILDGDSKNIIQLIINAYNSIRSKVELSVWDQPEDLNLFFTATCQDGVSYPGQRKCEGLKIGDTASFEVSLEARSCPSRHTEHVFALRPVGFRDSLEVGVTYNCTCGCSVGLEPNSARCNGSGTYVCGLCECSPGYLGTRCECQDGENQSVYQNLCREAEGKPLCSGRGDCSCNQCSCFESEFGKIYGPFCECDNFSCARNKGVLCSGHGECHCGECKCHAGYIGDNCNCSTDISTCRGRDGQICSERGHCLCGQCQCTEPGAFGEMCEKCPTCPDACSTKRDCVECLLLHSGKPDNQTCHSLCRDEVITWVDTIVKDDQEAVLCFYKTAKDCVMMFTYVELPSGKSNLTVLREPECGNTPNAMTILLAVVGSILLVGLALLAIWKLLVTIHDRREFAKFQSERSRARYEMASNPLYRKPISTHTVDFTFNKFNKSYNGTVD
E74-like factor 4 (ets domain transcription factor) (Homo sapiens), sequence (Q99607 whole entry, the tested form may be a part, canonical isoform): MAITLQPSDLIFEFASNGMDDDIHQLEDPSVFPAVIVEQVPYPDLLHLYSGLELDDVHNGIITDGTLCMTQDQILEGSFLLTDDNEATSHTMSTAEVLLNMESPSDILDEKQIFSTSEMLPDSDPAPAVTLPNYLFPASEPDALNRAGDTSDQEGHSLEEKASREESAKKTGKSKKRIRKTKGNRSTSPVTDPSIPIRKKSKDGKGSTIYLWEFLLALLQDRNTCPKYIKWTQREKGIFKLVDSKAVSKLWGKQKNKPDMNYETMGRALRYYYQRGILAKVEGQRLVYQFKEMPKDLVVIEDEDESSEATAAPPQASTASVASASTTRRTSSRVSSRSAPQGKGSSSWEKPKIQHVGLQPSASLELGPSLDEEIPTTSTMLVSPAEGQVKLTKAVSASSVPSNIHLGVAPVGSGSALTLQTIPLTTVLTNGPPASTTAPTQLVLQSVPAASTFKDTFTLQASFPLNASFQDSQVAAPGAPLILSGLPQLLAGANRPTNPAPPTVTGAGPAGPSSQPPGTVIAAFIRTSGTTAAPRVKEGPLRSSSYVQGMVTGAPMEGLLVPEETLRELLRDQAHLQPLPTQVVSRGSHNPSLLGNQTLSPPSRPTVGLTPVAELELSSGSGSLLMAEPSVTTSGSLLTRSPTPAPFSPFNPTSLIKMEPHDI

GroEL having Aspartate 490 substituted with Cysteine, biotinylated and conjugated onto NeutrAvidin beads (from UniProt A1AJ51 1-548)
Spectrum Count [1]: 14 count | Spectrum Count [2]: 15 count | Spectrum Count [3]: 10 count | Spectrum Count [4]: 38 count | Spectrum Count [5]: 14 count | Spectrum Count [6]: 11 count | Spectrum Count [7]: 11 count | Spectrum Count [8]: 12 count | Spectrum Count [9]: 12 count | Spectrum Count [10]: 19 count | Spectrum Count [11]: 11 count | Spectrum Count [12]: 27 count | Spectrum Count [13]: 18 count | Spectrum Count [14]: 43 count | Spectrum Count [15]: 28 count | Spectrum Count [16]: 19 count | Spectrum Count [17]: 35 count | Spectrum Count [18]: 13 count | Spectrum Count [19]: 17 count | Spectrum Count [20]: 28 count | Spectrum Count [21]: 33 count | Spectrum Count [22]: 30 count | Spectrum Count [23]: 13 count | Spectrum Count [24]: 14 count | Spectrum Count [25]: 9 count | Spectrum Count [26]: 34 count | Spectrum Count [27]: 17 count | Spectrum Count [28]: 24 count | Spectrum Count [29]: 9 count | Spectrum Count [30]: 13 count | Spectrum Count [31]: 13 count | Spectrum Count [32]: 15 count | Spectrum Count [33]: 9 count
